# Assay results: patent publication US20110118447A1
# B1: C5A (XPA23) VH Y101Q (antibody, V domains shown)
# VH: EVQLLESGGGLVQPGGSLRLSCAASGFTFSKYFMFWVRQAPGKGLEWVSVISPSGGMTRYADSVKGRFTISRDNSKNTLYLQMNSLRAEDTAVYYCARVGQGGNSDYWGQGTLVTVSS
# VL: DIQMTQSPSSVSASVGDRLTIICRASQDINRWLAWYQQTPGNAPKLLIHSATSLQSGVPSRFSGSGSGTDFTLTINSLQPEDFATYYCQQADSFPLTFGGGTKVEIK
# B2: C5A (XPA23) VH N104S (antibody, V domains shown)
# VH: EVQLLESGGGLVQPGGSLRLSCAASGFTFSKYFMFWVRQAPGKGLEWVSVISPSGGMTRYADSVKGRFTISRDNSKNTLYLQMNSLRAEDTAVYYCARVGYGGSSDYWGQGTLVTVSS
# VL: DIQMTQSPSSVSASVGDRLTIICRASQDINRWLAWYQQTPGNAPKLLIHSATSLQSGVPSRFSGSGSGTDFTLTINSLQPEDFATYYCQQADSFPLTFGGGTKVEIK
# B3: C5A (XPA23) VH D106N (antibody, V domains shown)
# VH: EVQLLESGGGLVQPGGSLRLSCAASGFTFSKYFMFWVRQAPGKGLEWVSVISPSGGMTRYADSVKGRFTISRDNSKNTLYLQMNSLRAEDTAVYYCARVGYGGNSNYWGQGTLVTVSS
# VL: DIQMTQSPSSVSASVGDRLTIICRASQDINRWLAWYQQTPGNAPKLLIHSATSLQSGVPSRFSGSGSGTDFTLTINSLQPEDFATYYCQQADSFPLTFGGGTKVEIK
# B4: C5A (XPA23) VH N104T (antibody, V domains shown)
# VH: EVQLLESGGGLVQPGGSLRLSCAASGFTFSKYFMFWVRQAPGKGLEWVSVISPSGGMTRYADSVKGRFTISRDNSKNTLYLQMNSLRAEDTAVYYCARVGYGGTSDYWGQGTLVTVSS
# VL: DIQMTQSPSSVSASVGDRLTIICRASQDINRWLAWYQQTPGNAPKLLIHSATSLQSGVPSRFSGSGSGTDFTLTINSLQPEDFATYYCQQADSFPLTFGGGTKVEIK
# B5: C5A (XPA23) VH N104H (antibody, V domains shown)
# VH: EVQLLESGGGLVQPGGSLRLSCAASGFTFSKYFMFWVRQAPGKGLEWVSVISPSGGMTRYADSVKGRFTISRDNSKNTLYLQMNSLRAEDTAVYYCARVGYGGHSDYWGQGTLVTVSS
# VL: DIQMTQSPSSVSASVGDRLTIICRASQDINRWLAWYQQTPGNAPKLLIHSATSLQSGVPSRFSGSGSGTDFTLTINSLQPEDFATYYCQQADSFPLTFGGGTKVEIK
# B6: C5A (XPA23) VH D106H (antibody, V domains shown)
# VH: EVQLLESGGGLVQPGGSLRLSCAASGFTFSKYFMFWVRQAPGKGLEWVSVISPSGGMTRYADSVKGRFTISRDNSKNTLYLQMNSLRAEDTAVYYCARVGYGGNSHYWGQGTLVTVSS
# VL: DIQMTQSPSSVSASVGDRLTIICRASQDINRWLAWYQQTPGNAPKLLIHSATSLQSGVPSRFSGSGSGTDFTLTINSLQPEDFATYYCQQADSFPLTFGGGTKVEIK
# B7: C5A (XPA23) VH S105N (antibody, V domains shown)
# VH: EVQLLESGGGLVQPGGSLRLSCAASGFTFSKYFMFWVRQAPGKGLEWVSVISPSGGMTRYADSVKGRFTISRDNSKNTLYLQMNSLRAEDTAVYYCARVGYGGNNDYWGQGTLVTVSS
# VL: DIQMTQSPSSVSASVGDRLTIICRASQDINRWLAWYQQTPGNAPKLLIHSATSLQSGVPSRFSGSGSGTDFTLTINSLQPEDFATYYCQQADSFPLTFGGGTKVEIK
# B8: C5A (XPA23) VH Y107E (antibody, V domains shown)
# VH: EVQLLESGGGLVQPGGSLRLSCAASGFTFSKYFMFWVRQAPGKGLEWVSVISPSGGMTRYADSVKGRFTISRDNSKNTLYLQMNSLRAEDTAVYYCARVGYGGNSDEWGQGTLVTVSS
# VL: DIQMTQSPSSVSASVGDRLTIICRASQDINRWLAWYQQTPGNAPKLLIHSATSLQSGVPSRFSGSGSGTDFTLTINSLQPEDFATYYCQQADSFPLTFGGGTKVEIK
# B9: C5A (XPA23) VH S105E (antibody, V domains shown)
# VH: EVQLLESGGGLVQPGGSLRLSCAASGFTFSKYFMFWVRQAPGKGLEWVSVISPSGGMTRYADSVKGRFTISRDNSKNTLYLQMNSLRAEDTAVYYCARVGYGGNEDYWGQGTLVTVSS
# VL: DIQMTQSPSSVSASVGDRLTIICRASQDINRWLAWYQQTPGNAPKLLIHSATSLQSGVPSRFSGSGSGTDFTLTINSLQPEDFATYYCQQADSFPLTFGGGTKVEIK
# B10: C5A (XPA23) VH S105T (antibody, V domains shown)
# VH: EVQLLESGGGLVQPGGSLRLSCAASGFTFSKYFMFWVRQAPGKGLEWVSVISPSGGMTRYADSVKGRFTISRDNSKNTLYLQMNSLRAEDTAVYYCARVGYGGNTDYWGQGTLVTVSS
# VL: DIQMTQSPSSVSASVGDRLTIICRASQDINRWLAWYQQTPGNAPKLLIHSATSLQSGVPSRFSGSGSGTDFTLTINSLQPEDFATYYCQQADSFPLTFGGGTKVEIK
# B11: C5A (XPA23) VH Y107D (antibody, V domains shown)
# VH: EVQLLESGGGLVQPGGSLRLSCAASGFTFSKYFMFWVRQAPGKGLEWVSVISPSGGMTRYADSVKGRFTISRDNSKNTLYLQMNSLRAEDTAVYYCARVGYGGNSDDWGQGTLVTVSS
# VL: DIQMTQSPSSVSASVGDRLTIICRASQDINRWLAWYQQTPGNAPKLLIHSATSLQSGVPSRFSGSGSGTDFTLTINSLQPEDFATYYCQQADSFPLTFGGGTKVEIK
# B12: C5A (XPA23) VH S105H (antibody, V domains shown)
# VH: EVQLLESGGGLVQPGGSLRLSCAASGFTFSKYFMFWVRQAPGKGLEWVSVISPSGGMTRYADSVKGRFTISRDNSKNTLYLQMNSLRAEDTAVYYCARVGYGGNHDYWGQGTLVTVSS
# VL: DIQMTQSPSSVSASVGDRLTIICRASQDINRWLAWYQQTPGNAPKLLIHSATSLQSGVPSRFSGSGSGTDFTLTINSLQPEDFATYYCQQADSFPLTFGGGTKVEIK
# B13: C5A (XPA23) VH N104Q (antibody, V domains shown)
# VH: EVQLLESGGGLVQPGGSLRLSCAASGFTFSKYFMFWVRQAPGKGLEWVSVISPSGGMTRYADSVKGRFTISRDNSKNTLYLQMNSLRAEDTAVYYCARVGYGGQSDYWGQGTLVTVSS
# VL: DIQMTQSPSSVSASVGDRLTIICRASQDINRWLAWYQQTPGNAPKLLIHSATSLQSGVPSRFSGSGSGTDFTLTINSLQPEDFATYYCQQADSFPLTFGGGTKVEIK
# B14: C5A (XPA23) VH D106E (antibody, V domains shown)
# VH: EVQLLESGGGLVQPGGSLRLSCAASGFTFSKYFMFWVRQAPGKGLEWVSVISPSGGMTRYADSVKGRFTISRDNSKNTLYLQMNSLRAEDTAVYYCARVGYGGNSEYWGQGTLVTVSS
# VL: DIQMTQSPSSVSASVGDRLTIICRASQDINRWLAWYQQTPGNAPKLLIHSATSLQSGVPSRFSGSGSGTDFTLTINSLQPEDFATYYCQQADSFPLTFGGGTKVEIK
# B15: C5A (XPA23) VH D106R (antibody, V domains shown)
# VH: EVQLLESGGGLVQPGGSLRLSCAASGFTFSKYFMFWVRQAPGKGLEWVSVISPSGGMTRYADSVKGRFTISRDNSKNTLYLQMNSLRAEDTAVYYCARVGYGGNSRYWGQGTLVTVSS
# VL: DIQMTQSPSSVSASVGDRLTIICRASQDINRWLAWYQQTPGNAPKLLIHSATSLQSGVPSRFSGSGSGTDFTLTINSLQPEDFATYYCQQADSFPLTFGGGTKVEIK
# B16: C5A (XPA23) VH D106K (antibody, V domains shown)
# VH: EVQLLESGGGLVQPGGSLRLSCAASGFTFSKYFMFWVRQAPGKGLEWVSVISPSGGMTRYADSVKGRFTISRDNSKNTLYLQMNSLRAEDTAVYYCARVGYGGNSKYWGQGTLVTVSS
# VL: DIQMTQSPSSVSASVGDRLTIICRASQDINRWLAWYQQTPGNAPKLLIHSATSLQSGVPSRFSGSGSGTDFTLTINSLQPEDFATYYCQQADSFPLTFGGGTKVEIK
# B17: C5A (XPA23) VH D106S (antibody, V domains shown)
# VH: EVQLLESGGGLVQPGGSLRLSCAASGFTFSKYFMFWVRQAPGKGLEWVSVISPSGGMTRYADSVKGRFTISRDNSKNTLYLQMNSLRAEDTAVYYCARVGYGGNSSYWGQGTLVTVSS
# VL: DIQMTQSPSSVSASVGDRLTIICRASQDINRWLAWYQQTPGNAPKLLIHSATSLQSGVPSRFSGSGSGTDFTLTINSLQPEDFATYYCQQADSFPLTFGGGTKVEIK
# B18: C5A (XPA23) VH S105Q (antibody, V domains shown)
# VH: EVQLLESGGGLVQPGGSLRLSCAASGFTFSKYFMFWVRQAPGKGLEWVSVISPSGGMTRYADSVKGRFTISRDNSKNTLYLQMNSLRAEDTAVYYCARVGYGGNQDYWGQGTLVTVSS
# VL: DIQMTQSPSSVSASVGDRLTIICRASQDINRWLAWYQQTPGNAPKLLIHSATSLQSGVPSRFSGSGSGTDFTLTINSLQPEDFATYYCQQADSFPLTFGGGTKVEIK
# B19: C5A (XPA23) VH G102N (antibody, V domains shown)
# VH: EVQLLESGGGLVQPGGSLRLSCAASGFTFSKYFMFWVRQAPGKGLEWVSVISPSGGMTRYADSVKGRFTISRDNSKNTLYLQMNSLRAEDTAVYYCARVGYNGNSDYWGQGTLVTVSS
# VL: DIQMTQSPSSVSASVGDRLTIICRASQDINRWLAWYQQTPGNAPKLLIHSATSLQSGVPSRFSGSGSGTDFTLTINSLQPEDFATYYCQQADSFPLTFGGGTKVEIK
# B20: C5A (XPA23) VH D106Q (antibody, V domains shown)
# VH: EVQLLESGGGLVQPGGSLRLSCAASGFTFSKYFMFWVRQAPGKGLEWVSVISPSGGMTRYADSVKGRFTISRDNSKNTLYLQMNSLRAEDTAVYYCARVGYGGNSQYWGQGTLVTVSS
# VL: DIQMTQSPSSVSASVGDRLTIICRASQDINRWLAWYQQTPGNAPKLLIHSATSLQSGVPSRFSGSGSGTDFTLTINSLQPEDFATYYCQQADSFPLTFGGGTKVEIK
# Key:
# [1] = target: binding partner of C5A (XPA23); assay: Biacore
# [2] = target: binding partner of C5A (XPA23); assay: Biacore, K-off
Binder,fold affinity vs original [1],fold difference in affinity vs original [2],fold difference in affinity vs original [1]
B1,0.06 fold,0.06 fold,
B2,1.02 fold,1.02 fold,
B3,0.07 fold,0.07 fold,
B4,,0.95 fold,0.95 fold
B5,0.07 fold,0.07 fold,
B6,0.02 fold,0.02 fold,
B7,0.85 fold,0.85 fold,
B8,0.9 fold,0.9 fold,
B9,1.17 fold,1.17 fold,
B10,,0.11 fold,0.11 fold
B11,0.85 fold,0.85 fold,
B12,0.05 fold,0.05 fold,
B13,0.03 fold,0.03 fold,
B14,0.04 fold,0.04 fold,
B15,0.06 fold,0.06 fold,
B16,0.04 fold,0.04 fold,
B17,0.03 fold,0.03 fold,
B18,0.98 fold,0.98 fold,
B19,1.17 fold,1.17 fold,
B20,0.02 fold,0.02 fold,
